Measured values reported in US20070134221A1 (published 2007).

Tests used:
Assay in all cases: cell-based or functional assay
[1] = target: envelope glycoprotein of virus isolate HIV-1 UG270 (HIV-1 UG270)
[2] = target: envelope glycoprotein of virus isolate HIV-1 DJ258 (HIV-1 DJ258)
[3] = target: envelope glycoprotein of virus isolate HIV-1 NL4-3 (HIV-1 NL4-3)
[4] = target: envelope glycoprotein of virus isolate HIV-1 Case C 7/86 (HIV-1 Case C 7/86)
[5] = target: envelope glycoprotein of virus isolate HIV-1 CM.235 (HIV-1 CM.235)
[6] = target: envelope glycoprotein of virus isolate HIV-1 BZ162 (HIV-1 BZ162)
[7] = target: envelope glycoprotein of virus isolate HIV-1 94ZW103 (HIV-1 94ZW103)
[8] = target: envelope glycoprotein of virus isolate HIV-1 JFRL (HIV-1 JFRL)

| Binder | IC50 (nM), Human PBMC Infectivity Assays [1] [nM] | IC50 (nM), Human PBMC Infectivity Assays [2] [nM] | IC50 (nM), Human PBMC Infectivity Assays [3] [nM] | IC50 (nM), Human PBMC Infectivity Assays [4] [nM] | IC50 (nM), Human PBMC Infectivity Assays [5] [nM] | IC50 (nM), Human PBMC Infectivity Assays [6] [nM] | IC50 (nM), Human PBMC Infectivity Assays [7] [nM] | IC50 (nM), Human PBMC Infectivity Assays [8] [nM] |
| --- | --- | --- | --- | --- | --- | --- | --- | --- |
| C52F peptide (peptide) peptide: NHTTWMEWDREINNYTSLIHSLIEESQNLQEKNEQELLELDKWASLWNWFNIKIK | 68 | 9 | 23 | 49 | 11 | 2 | 4 | 5 |
| C52L peptide (peptide) peptide: NHTTWMEWDREINNYTSLIHSLFEESQNLQEKAEQELFELDKWASLWNWFNIKIK | 61 | 11 | 20 | 17 | – | 3 | 3 | 6 |
